According to article PMC3605390, “Characterisation of ATP-Dependent Mur Ligases Involved in the Biogenesis of Cell Wall Peptidoglycan in Mycobacterium tuberculosis” (PLoS ONE, 2013):

Experiments:
[1] = system: C[C@@H](N)C(=O)N[C@H](C)C(=O)O; experiment: purified protein; details: pH 8.5; 37.0 °C
[2] = system: CC(=O)N[C@H]1[C@@H](OP(=O)(O)OP(=O)(O)OC[C@H]2O[C@@H](n3ccc(=O)[nH]c3=O)[C@H](O)[C@@H]2O)O[C@H](CO)[C@@H](O)[C@@H]1O[C@H](C)C(=O)N[C@@H](C)C(=O)N[C@H](CCC(=O)N[C@@H](CCC[C@@H](N)C(=O)O)C(=O)O)C(=O)O; experiment: purified protein; details: pH 8.5; 37.0 °C

**Q.** Which results are given for MurF (Mycobacterium tuberculosis H37Rv)?
**A.** Km [1]: 78.1 ± 0.2 µM; kcat/Km [1]: 18100 ± 300 M⁻¹ s⁻¹; Km [2]: 64.5 ± 0.2 µM; kcat/Km [2]: 21700 ± 200 M⁻¹ s⁻¹
